Reference: PMC6856630, “Structures of neurexophilin–neurexin complexes reveal a regulatory mechanism of alternative splicing” (The EMBO Journal, 2019)
Positions count from the first letter of the chain named. Numbers in names are those of the source. Where “and” joins values, the source holds several entries; their conditions need not be identical. Equal entries are not always repeated.

B1: Nrxn3 LNS2^SS2A+, AviTag-His, biotinylated (BLI) (domain or fragment)
chain: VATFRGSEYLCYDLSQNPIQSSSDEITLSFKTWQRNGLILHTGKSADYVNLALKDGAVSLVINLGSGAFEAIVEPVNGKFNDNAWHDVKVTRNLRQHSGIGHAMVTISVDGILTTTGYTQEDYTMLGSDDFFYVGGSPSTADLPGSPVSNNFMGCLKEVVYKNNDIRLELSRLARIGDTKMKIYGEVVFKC
modifications: biotin on the AviTag (BirA)
B2: Nxph1-2XFLAG-His (mature rat neurexophilin-1, 118-271, glycosylated) (ligand, UniProt Q63366 118-271, looked up)
chain: MFGWGDFHSNIKTVKLNLLITGKIVDHGNGTFSVYFRHNSTGQGNVSVSLVPPTKIVEFDLAQQTVIDAKDSKSFNCRIEYEKVDKATKNTLCNYDPSKTCYQEQTQSHVSWLCSKPFKVICIYISFYSTDYKLVQKVCPDYNYHSDTPYFPSG
modifications: N-linked glycans at N146, N156 and N162
notes: Neurexophilin-1, rat, mature form, residues 118-271; Expressed with an Igκ signal peptide at the N-terminus; HRV 3C site before the tags, not cut for the biochemical studies; source: 293F cells, BacMam expression system, secreted; purification of Nxph1 alone not described; not shown: 2xFLAG, C-terminal, kept; His6, C-terminal, kept
B3: Nxph1^3ND (mature rat neurexophilin-1, 118-271, N146D/N156D/N162D) (ligand, UniProt Q63366 118-271, looked up)
chain: B2 chain with N29D, N39D, N45D
notes: Neurexophilin-1, rat, mature form, residues 118-271, the three N-linked glycosylation sites mutated to aspartic acid; Expressed with an Igκ signal peptide at the N-terminus; tags removed with HRV 3C protease; also called Nxph1 (in the crystal structures); source: HEK293S GnTI- cells, BacMam, co-expressed with LNS2, complex purified (HisTrap, StrepTrap, 3C cleavage, Mono Q); not shown: 2xFLAG, …
B4: Nrxn1 LNS2^SS2− (I401Q), AviTag-His, biotinylated (BLI) (domain or fragment)
chain: not shown
modifications: biotin on the AviTag (BirA)
notes: numbers count on: UniProt Q9CS84-1 (isoform 1a); Igκ signal peptide at the N-terminus; source: 293F cells, transfected, secreted, purified (Ni-NTA, BirA biotinylation, Superdex Increase 200); not shown: AviTag, C-terminal, kept; His6, C-terminal, kept
B5: Nxph3-2XFLAG-His (rat neurexophilin-3, 50-252) (ligand, UniProt Q9Z2N5 50-252, looked up)
chain: RGHISPKSRPLANSTLLGLLAPPGEVWGILGQPPNRPKQSPLPSTKVKKIFGWGDFYSNIKTVALNLLVTGKIVDHGNGTFSVHFRHNATGQGNISISLVPPSKAVEFHQEQQIFIEAKASKIFNCRMEWEKVERGRRTSLCTHDPAKICSRDHAQSSATWSCSQPFKIVCVYIAFYSTDYRLVQKVCPDYNYHSDTPYYPSG
modifications: glycans (sites not given)
notes: Neurexophilin-3, rat, residues 50-252; Expressed with an Igκ signal peptide at the N-terminus; HRV 3C site before the tags, not cut; source: 293F cells, BacMam expression system, secreted; purification not described; not shown: 2xFLAG, C-terminal, kept; His6, C-terminal, kept
B6: Nrxn1 LNS2^SS2−, AviTag-His, biotinylated (BLI) (domain or fragment)
chain: not shown
modifications: biotin on the AviTag (BirA)
notes: as for B4

Key:
[1] = target: B2; experiment: BLI; Octet RED384; biotinylated neurexin LNS2 on streptavidin tips, Nxph in solution; 25°C, PBS pH 7.4, 50 nM TCEP, 1% BSA; global fit, double reference subtraction; conditions: both partners purified
[2] = target: the molecule itself; experiment: SEC-MALS + other: SEC-SAXS; Nxph1 alone; SEC-MALS on Superdex 200 10/300 in PBS pH 7.4, SEC-SAXS on Superdex Increase 200 3.2/300
[3] = target: T1, Nrxn1 LNS2^SS2A+, AviTag-His, biotinylated (BLI) (mouse, UniProt Q9CS84-1 283-480, 283–386; 394–480, biotin on the AviTag (BirA)); experiment: BLI; Octet RED384; biotinylated neurexin LNS2 on streptavidin tips, Nxph in solution; 25°C, PBS pH 7.4, 50 nM TCEP, 1% BSA; global fit, double reference subtraction; conditions: both partners purified
T1 construct: numbers count on: UniProt Q9CS84-1 (isoform 1a); Igκ signal peptide at the N-terminus; source: 293F cells, transfected, secreted, purified (Ni-NTA, BirA biotinylation, Superdex Increase 200); not shown: AviTag, C-terminal, kept; His6, C-terminal, kept

[4] = target: B4; experiment: as above; conditions: both partners purified
[5] = target: T2, Nrxn1 LNS2^SS2A+ (I401Q), AviTag-His, biotinylated (BLI) (mouse, UniProt Q9CS84-1 283-480, 283–386; 394–480 | I401Q, biotin on the AviTag (BirA)); experiment: as above; conditions: both partners purified
T2 construct: numbers count on: UniProt Q9CS84-1 (isoform 1a); Igκ signal peptide at the N-terminus; source: 293F cells, transfected, secreted, purified (Ni-NTA, BirA biotinylation, Superdex Increase 200); not shown: AviTag, C-terminal, kept; His6, C-terminal, kept

[6] = target: B6; experiment: as above; conditions: both partners purified
[7] = target: T3, Nrxn1 LNS2^SS2A+, crystallographic construct (mouse, UniProt Q9CS84-1 283-480, 283–386; 394–480); experiment: SEC-MALS; Superdex 200 10/300, 0.5 ml/min, PBS pH 7.4; conditions: both partners purified
T3 construct: Neurexin-1 alpha, mouse, LNS2 domain with the eight-residue SS2A insert (379-386), residues 283-386 joined to 394-480; numbers count on: UniProt Q9CS84-1 (isoform 1a); Expressed with an Igκ signal peptide at the N-terminus; not shown: Twin-Strep, C-terminal, cleaved

[8] = target: T4, Nrxn1 LNS2^SS2− (C293A), crystallographic construct (mouse, UniProt Q9CS84-1 283-480, 283–378; 394–480 | C293A); experiment: as above; conditions: both partners purified
T4 construct: Neurexin-1 alpha, mouse, LNS2 domain without insert in splice site 2, residues 283-378 joined to 394-480; numbers count on: UniProt Q9CS84-1 (isoform 1a); Expressed with an Igκ signal peptide at the N-terminus; source: HEK293S GnTI- cells, BacMam, co-expressed with Nxph1^3ND, complex purified (HisTrap, StrepTrap, 3C cleavage, Mono Q); not shown: Twin-Strep, C-terminal, cleaved

[9] = target: B5; experiment: BLI; Octet RED384; biotinylated neurexin LNS2 on streptavidin tips, Nxph in solution; 25°C, PBS pH 7.4, 50 nM TCEP, 1% BSA; global fit, double reference subtraction; conditions: both partners purified
[10] = target: the molecule itself; experiment: SEC-MALS; Superdex 200 10/300, 0.5 ml/min, PBS pH 7.4

T1 sequence (Q9CS84 other isoform, or with tags, fused parts or gaps 283–386/394–480 | 283–386/394–480): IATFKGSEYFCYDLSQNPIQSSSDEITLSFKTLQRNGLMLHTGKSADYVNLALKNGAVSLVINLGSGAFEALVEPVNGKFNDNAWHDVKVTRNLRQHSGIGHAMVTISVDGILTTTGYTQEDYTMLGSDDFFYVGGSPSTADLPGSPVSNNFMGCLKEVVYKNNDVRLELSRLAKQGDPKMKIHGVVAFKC
T2 sequence (Q9CS84 other isoform, or with tags, fused parts or gaps with the stated changes): as the sequence (Q9CS84 other isoform, or with tags, fused parts or gaps 283–386/394–480 | 283–386/394–480) above, with I112Q counted along it
T3 sequence (Q9CS84 other isoform, or with tags, fused parts or gaps 283–386/394–480 | 283–386/394–480): as the sequence (Q9CS84 other isoform, or with tags, fused parts or gaps 283–386/394–480 | 283–386/394–480) above
T4 sequence (Q9CS84 other isoform, or with tags, fused parts or gaps with the stated changes): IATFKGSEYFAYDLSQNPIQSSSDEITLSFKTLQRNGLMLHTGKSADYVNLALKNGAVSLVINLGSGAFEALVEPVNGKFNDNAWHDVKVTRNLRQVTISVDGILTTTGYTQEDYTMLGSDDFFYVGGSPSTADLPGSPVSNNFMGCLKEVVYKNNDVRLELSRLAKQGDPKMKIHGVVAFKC

Binder: B1
Kd [1]: 31.4 nM
koff [1]: 6.4e-05 s⁻¹
kon [1]: 2060 M⁻¹ s⁻¹

Binder: B2
stoichiometry N [2]: 2 and 4
Kd [3]: 49 nM
koff [3]: 9.7e-05 s⁻¹
kon [3]: 2040 M⁻¹ s⁻¹
Kd [4]: 16.4 µM
koff [4]: 0.0034 s⁻¹
kon [4]: 220 M⁻¹ s⁻¹
Kd [5]: 472 nM
koff [5]: 0.0002 s⁻¹
kon [5]: 419 M⁻¹ s⁻¹
Kd [6]: 299 nM
koff [6]: 0.00012 s⁻¹
kon [6]: 399 M⁻¹ s⁻¹

Binder: B3
stoichiometry N [7]: 1
stoichiometry N [8]: 1

Binder: B4
Kd [9]: 3340 nM
koff [9]: 0.00064 s⁻¹
kon [9]: 194 M⁻¹ s⁻¹

Binder: B5
binding result [10]: binds

Binder: B6
Kd [9]: 260 nM
koff [9]: 0.0001 s⁻¹
kon [9]: 209 M⁻¹ s⁻¹
